Laboratory results published in patent US20160289283A1.

Assays:
Test in all cases: cell-based or functional assay
[1] = molecular target: human Y4 receptor (human) (UniProt P50391)
[2] = molecular target: human Y1 receptor (human) (UniProt P25929)
[3] = molecular target: human Y2 receptor (human) (UniProt P49146)
human Y2 receptor (human), sequence (P49146 whole entry): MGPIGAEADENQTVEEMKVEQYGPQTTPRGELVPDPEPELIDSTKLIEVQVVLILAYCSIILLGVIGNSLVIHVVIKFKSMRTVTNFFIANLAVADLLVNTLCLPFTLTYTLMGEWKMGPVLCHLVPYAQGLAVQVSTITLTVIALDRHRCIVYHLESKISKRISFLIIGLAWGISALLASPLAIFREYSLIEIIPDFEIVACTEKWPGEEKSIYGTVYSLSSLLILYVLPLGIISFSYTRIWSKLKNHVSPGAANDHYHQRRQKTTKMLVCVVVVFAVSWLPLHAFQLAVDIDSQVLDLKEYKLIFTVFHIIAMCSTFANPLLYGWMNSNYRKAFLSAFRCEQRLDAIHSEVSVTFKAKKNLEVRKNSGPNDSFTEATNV

human Y1 receptor (human), sequence (P25929 whole entry): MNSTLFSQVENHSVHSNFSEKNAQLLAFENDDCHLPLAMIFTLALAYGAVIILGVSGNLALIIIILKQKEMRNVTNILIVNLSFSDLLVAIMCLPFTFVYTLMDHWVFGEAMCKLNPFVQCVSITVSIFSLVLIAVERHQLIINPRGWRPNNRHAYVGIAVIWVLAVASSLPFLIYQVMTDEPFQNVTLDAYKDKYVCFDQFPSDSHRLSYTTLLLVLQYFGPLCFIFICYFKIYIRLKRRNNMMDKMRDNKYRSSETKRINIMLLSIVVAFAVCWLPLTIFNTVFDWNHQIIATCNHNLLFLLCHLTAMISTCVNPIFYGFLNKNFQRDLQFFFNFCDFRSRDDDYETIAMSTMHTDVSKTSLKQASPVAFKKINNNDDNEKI
human Y4 receptor (human), sequence (P50391 whole entry): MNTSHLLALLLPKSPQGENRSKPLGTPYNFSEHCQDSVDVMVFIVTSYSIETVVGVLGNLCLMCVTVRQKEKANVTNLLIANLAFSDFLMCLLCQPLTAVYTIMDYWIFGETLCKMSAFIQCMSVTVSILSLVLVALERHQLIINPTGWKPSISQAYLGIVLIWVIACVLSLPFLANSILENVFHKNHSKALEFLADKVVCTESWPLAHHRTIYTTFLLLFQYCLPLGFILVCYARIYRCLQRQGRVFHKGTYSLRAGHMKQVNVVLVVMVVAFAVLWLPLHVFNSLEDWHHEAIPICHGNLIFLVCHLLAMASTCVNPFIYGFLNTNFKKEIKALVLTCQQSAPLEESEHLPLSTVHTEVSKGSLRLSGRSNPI

4-N{alpha}-(3-Methylbutanoyl)-7-N{Epsilon}-[2-[2-[2-[[2-[2-[2-[[(4S)-4-carboxy-4-[[(4S)-4-carboxy-4-(16-sulfohexadecanoylamino)butanoyl]amino]butanoyl]amino]-ethoxy]ethoxy]acetyl]amino]ethoxy]ethoxy]acetyl]-[Lys7,Gln18,Trp30,NMeArg35]hPYY(4-36) (peptide)
EC50, Actone functional potency assay [1]: > 1 µM

4-N{alpha}-(hexanoyl)-7-N{Epsilon}-2-[2-[2-[[2-[2-[2-[[(4S)-4-carboxy-4-(16-sulfohexadecanoylamino)butanoyl]amino]ethoxy]ethoxy]acetyl]amino]ethoxy]-ethoxy]acetyl]-[Arg4,Lys7,Gln18,Trp30,NMeArg35]hPYY(4-36) (peptide)
EC50, Actone functional potency assay [2]: > 1 µM

7-N{Epsilon}-[2-[2-[2-[[2-[2-[2-[[2-[2-[2-[[2-[2-[2-[4-[16-(1H-tetrazol-5- yl)-hexadecanoylsulfamoyl]butanoylamino]ethoxy]ethoxy]acetyl]amino]ethoxy]-ethoxy]acetyl]amino]ethoxy]ethoxy]acetyl]amino]ethoxy]ethoxy]acetyl]-[Lys7,Gln18,Trp30,NMeArg35]hPYY(3-36) (peptide)
EC50, Actone functional potency assay [2]: > 1 µM

7-N{Epsilon}-[2-[2-[2-[[2-[2-[2-[[(4S)-4-carboxy-4-(16-sulfohexadecanoylamino)-butanoyl]amino]ethoxy]ethoxy]acetyl]amino]ethoxy]ethoxy]acetyl]-[Arg4,Lys7,Gln18,Trp30]hPYY(3-36) (peptide)
EC50, Actone functional potency assay [2]: > 1 µM
EC50, Actone functional potency assay [3]: 0.001 µM
EC50, Actone functional potency assay [1]: > 1 µM

7-N{Epsilon}-[2-[2-[2-[[2-[2-[2-[[(4S)-4-carboxy-4-(16-sulfohexadecanoylamino)-butanoyl]amino]ethoxy]ethoxy]acetyl]amino]ethoxy]ethoxy]acetyl]-[Lys7,Gln18,Trp30,NMeArg35]hPYY(3-36) (peptide)
EC50, Actone functional potency assay [2]: > 1 µM
